In patent US20240132577A1 (US Dept. of Health and Human Services, published 2024):
Values joined by “and” are separate entries in the source; they are usually repeats but may differ in a detail not shown here. Identical values can stand only once.

B1: Nb47 (VHH)
VHH: QVQLQESGGGLVQAGGSLRLSCAASGRTLSRYSMSWFRQAPGKEREFVAGIRWSGSNTYYADSMKQRFTISQDNVKNTVHLQMNSLKPEDTAVYYCAATSRSDHYLNAVAWTLPNEYDYWGQGTQVTVSS
B2: Nb7 (VHH)
VHH: QVQLQESGGGLVQAGDSLRLSCLSSERTFRRYGIAWFRQAPGKEREFVAAVDRSHSQTNYADFVQGRFTISTVYAKNMVYLQMNSLKPEDTAVYYCAAASYEKGSDYTSWNTDRGYDYWGQGTQVTVSS
B3: Nb43 (VHH)
VHH: QVQLQESGGGLVQAGDSLKLSCAASGRTFSDSAMGWFRQAPGEEREFVAVITWNGGTTYYADSVKGRFTISRDDAKNTVYLQMNSLKPEDTAVYYCAADTSRWDYSLTYHYTREYNYWGQGTQVTVSS
B4: mNb35 (VHH)
VHH: QVQLVESGGGLVQAGGSLRLSCAASGRTFSKYAMGWFRQAPGKERKFVATISWSGDSAFYADSVKGRFTISRDNARNTVYLQMNSLKPEDTAVYYCTADRGMGYGDFMDYWGQGTSVTVSS
B5: Nb6 (VHH)
VHH: QVQLQESGGGLVQAGGSLRLSCAASGNIANSNSMAWWRQTPGNQHERVAIISHGVTNYADSVKGRFTVSRDNAKNTLYLQMNNLKPEDTAAYYCYADLFGNTYWGQGTQVTVSS

molecular target: SARS-CoV-2 S protein (C-terminally truncated, on pseudotyped virus) (SARS-CoV-2 (Wuhan-Hu-1), UniProt P0DTC2 14-1254); test: cell-based or functional assay

| Binder | IC50 (pseudovirus neutralization) | IC90 (pseudovirus neutralization) |
| --- | --- | --- |
| B1 | 731 ng/ml and 54.2 nM | > 10000 ng/ml and > 500 nM |
| B2 | 43 ng/ml and 3.2 nM | 451 ng/ml and 33.4 nM |
| B3 | 281 ng/ml and 20.9 nM | 5330 ng/ml and 395 nM |
| B4 | 209 ng/ml and 15.5 nM | 692 ng/ml and 51.3 nM |
| B5 | 141 ng/ml and 10.5 nM | 354 ng/ml and 26.3 nM |
